# Assay results as given in patent publication US20170326229A1.
# What was measured:
# Assay in all cases: ELISA, gp120 on plate
# [1] = biological target: CH505 Env w020.11 gp120 (HIV-1)
# [2] = biological target: CH505 transmitted/founder (TF) Env gp120 (HIV-1)
# [3] = biological target: CH505 Env w020.25 gp120 (HIV-1)
# [4] = biological target: CH505 Env w078.15 gp120 (HIV-1)
# [5] = biological target: CH505 Env w053.22 gp120 (HIV-1)
# [6] = biological target: CH505 Env w030.13 gp120 (HIV-1)
# [7] = biological target: CH505 Env w004.54 gp120 (HIV-1)
# [8] = biological target: CH505 Env w020.15 gp120 (HIV-1)
# [9] = biological target: CH505 Env w078.9 gp120 (HIV-1)
# [10] = biological target: CH505 Env w136.B5 gp120 (HIV-1)
# [11] = biological target: CH505 Env w053.29 gp120 (HIV-1)
# [12] = biological target: CH505 Env w053.31 gp120 (HIV-1)
# [13] = biological target: CH505 Env w136.B23 gp120 (HIV-1)
# [14] = biological target: CH505 Env w078.6 gp120 (HIV-1)
# [15] = biological target: CH505 Env w078.17 gp120 (HIV-1)
# [16] = biological target: CH505 Env w100.B2 gp120 (HIV-1)
# [17] = biological target: CH505 Env w030.17 gp120 (HIV-1)
# [18] = biological target: CH505 Env w078.33 gp120 (HIV-1)
# [19] = biological target: CH505 Env w100.A13 gp120 (HIV-1)
# [20] = biological target: CH505 Env w136.B2 gp120 (HIV-1)
# [21] = biological target: CH505 Env w030.20 gp120 (HIV-1)
# [22] = biological target: CH505 Env w030.21 gp120 (HIV-1)
# [23] = biological target: CH505 Env w030.36 gp120 (HIV-1)
# [24] = biological target: CH505 Env w136.B10 gp120 (HIV-1)
# [25] = biological target: CH505 Env w053.15 gp120 (HIV-1)
# [26] = biological target: CH505 Env w100.B4 gp120 (HIV-1)
# [27] = biological target: CH505 Env w160.T4 gp120 (HIV-1)
Substance,log-transformed AUC [1],log-transformed AUC [2],log-transformed AUC [3],log-transformed AUC [4],log-transformed AUC [5],log-transformed AUC [6],log-transformed AUC [7],log-transformed AUC [8],log-transformed AUC [9],log-transformed AUC [10],log-transformed AUC [11],log-transformed AUC [12],log-transformed AUC [13],log-transformed AUC [14],log-transformed AUC [15],log-transformed AUC [16],log-transformed AUC [17],log-transformed AUC [18],log-transformed AUC [19],log-transformed AUC [20],also measured
CH103 lineage intermediate ancestor IA4 (antibody),0.8 log AUC,10.1 log AUC,7.3 log AUC,1.3 log AUC,0.2 log AUC,7.4 log AUC,2.8 log AUC,9.1 log AUC,–,–,–,–,–,–,–,–,–,–,–,–,–
CH103 CD4 binding site broadly neutralizing antibody,9.6 log AUC,12.6 log AUC,10.3 log AUC,10.7 log AUC,11.6 log AUC,12.9 log AUC,9.2 log AUC,11.8 log AUC,8.9 log AUC,4.3 log AUC,10.2 log AUC,13.6 log AUC,11.8 log AUC,9.9 log AUC,11.3 log AUC,3.2 log AUC,9.9 log AUC,11.1 log AUC,12.9 log AUC,10.8 log AUC,log-transformed AUC [21]: 9.5 log AUC; log-transformed AUC [22]: 12.2 log AUC; log-transformed AUC [23]: 9.1 log AUC; log-transformed AUC [24]: 11.5 log AUC; log-transformed AUC [25]: 11.2 log AUC; log-transformed AUC [26]: 9.7 log AUC; log-transformed AUC [27]: 9 log AUC
CH103 lineage intermediate ancestor IA6 (antibody),0.8 log AUC,9.1 log AUC,6 log AUC,1 log AUC,–,6.5 log AUC,2.9 log AUC,7.8 log AUC,–,–,–,–,–,–,–,–,–,–,–,–,–
CH103 lineage intermediate ancestor IA3 (antibody),0.8 log AUC,11 log AUC,8.6 log AUC,3 log AUC,1.1 log AUC,9 log AUC,5.1 log AUC,10.2 log AUC,–,–,–,–,–,–,–,–,–,–,–,–,–
CH106 (CH103 lineage monoclonal antibody),5.4 log AUC,11.3 log AUC,9.4 log AUC,11 log AUC,9.8 log AUC,11.9 log AUC,8.1 log AUC,10.5 log AUC,8.3 log AUC,10.9 log AUC,9.7 log AUC,13.4 log AUC,13.3 log AUC,6.7 log AUC,8.7 log AUC,7.8 log AUC,8.2 log AUC,9.5 log AUC,12 log AUC,12.7 log AUC,log-transformed AUC [21]: 7.3 log AUC; log-transformed AUC [22]: 10.9 log AUC; log-transformed AUC [23]: 8.5 log AUC; log-transformed AUC [24]: 9 log AUC; log-transformed AUC [25]: 10.1 log AUC; log-transformed AUC [26]: 12.6 log AUC; log-transformed AUC [27]: 12.3 log AUC
CH103 lineage intermediate ancestor IA1 (antibody),1.8 log AUC,10.4 log AUC,8.6 log AUC,10.9 log AUC,8.8 log AUC,10.5 log AUC,6.2 log AUC,9.9 log AUC,6.3 log AUC,9.5 log AUC,8.8 log AUC,13.4 log AUC,14.4 log AUC,3 log AUC,9 log AUC,7.3 log AUC,5.8 log AUC,8.2 log AUC,12.6 log AUC,13.2 log AUC,log-transformed AUC [21]: 5.7 log AUC; log-transformed AUC [22]: 11.8 log AUC; log-transformed AUC [23]: 6.7 log AUC; log-transformed AUC [24]: 9.2 log AUC; log-transformed AUC [25]: 9.2 log AUC; log-transformed AUC [26]: 13.7 log AUC; log-transformed AUC [27]: 13.6 log AUC
CH105 (CH103 lineage monoclonal antibody),3.6 log AUC,11.2 log AUC,8.2 log AUC,10.1 log AUC,9 log AUC,10.5 log AUC,8.3 log AUC,10.8 log AUC,6.6 log AUC,10.5 log AUC,8.5 log AUC,13.5 log AUC,13.7 log AUC,3.8 log AUC,9.5 log AUC,7.5 log AUC,6.7 log AUC,8.9 log AUC,11.4 log AUC,12.4 log AUC,log-transformed AUC [21]: 7.1 log AUC; log-transformed AUC [22]: 10.6 log AUC; log-transformed AUC [23]: 7.5 log AUC; log-transformed AUC [24]: 8.5 log AUC; log-transformed AUC [25]: 9.4 log AUC; log-transformed AUC [26]: 11.9 log AUC; log-transformed AUC [27]: 12.2 log AUC
CH103 lineage unmutated common ancestor (UCA) (antibody),–,3.5 log AUC,0.8 log AUC,–,–,0.3 log AUC,–,1.6 log AUC,–,–,–,–,–,–,–,–,–,–,–,–,–
CH103 lineage intermediate ancestor IA7 (antibody),0.1 log AUC,9.2 log AUC,6.4 log AUC,0.7 log AUC,–,4.7 log AUC,2.3 log AUC,8.2 log AUC,–,–,–,–,–,–,–,–,–,–,–,–,–
CH103 lineage intermediate ancestor IA8 (antibody),0.9 log AUC,5.5 log AUC,2.4 log AUC,–,–,2 log AUC,0.5 log AUC,4.2 log AUC,–,–,–,–,–,–,–,–,–,–,–,–,–
CH103 lineage intermediate ancestor IA2 (antibody),2.6 log AUC,10.8 log AUC,9 log AUC,11.5 log AUC,9.3 log AUC,11.4 log AUC,6.8 log AUC,10.5 log AUC,7.2 log AUC,9.9 log AUC,9.2 log AUC,13.3 log AUC,14.3 log AUC,4.6 log AUC,9.9 log AUC,7.5 log AUC,7 log AUC,9 log AUC,12.5 log AUC,13.1 log AUC,log-transformed AUC [21]: 6.3 log AUC; log-transformed AUC [22]: 11.5 log AUC; log-transformed AUC [23]: 7.3 log AUC; log-transformed AUC [24]: 9.7 log AUC; log-transformed AUC [25]: 9.5 log AUC; log-transformed AUC [26]: 13.4 log AUC; log-transformed AUC [27]: 13.4 log AUC
CH104 (CH103 lineage monoclonal antibody),2.2 log AUC,10.4 log AUC,8.3 log AUC,10.8 log AUC,9.9 log AUC,11.3 log AUC,8.1 log AUC,10.5 log AUC,6.9 log AUC,10.6 log AUC,9.8 log AUC,13.7 log AUC,14.2 log AUC,4.5 log AUC,10 log AUC,6.1 log AUC,7 log AUC,9 log AUC,12.9 log AUC,13.2 log AUC,log-transformed AUC [21]: 7.5 log AUC; log-transformed AUC [22]: 11.3 log AUC; log-transformed AUC [23]: 7.8 log AUC; log-transformed AUC [24]: 8.9 log AUC; log-transformed AUC [25]: 10.4 log AUC; log-transformed AUC [26]: 13.1 log AUC; log-transformed AUC [27]: 12.8 log AUC
